Target: HPV-6 L2E7 fusion protein (encoded by plasmid pGW53: pelB leader, HPV-6 L2, HPV-6 E7, His Tag) (human papillomavirus type 6 (HPV-6), clinical isolate H26) (UniProt P06464)

“draining (axillary) lymph node cells from B6CBA mice immunized with L2E7/Alum (cells without a defined receptor)” gave an incorporation of tritiated thymidine (in-vitro lymphoproliferative response) (stimulation index) of 50.

Source: patent US6123948
